We go through 4 substances from paper doi:10.1101/2022.11.07.515412.

Values joined by “and” are separate entries in the source; they are usually repeats but may differ in a detail not shown here. Identical values can stand only once.

In experiment [1] the target is vinculin D1D4 (residues 1-834) (human) (UniProt P18206). Kind of experiment: SEC-MALS. For orientation: Size exclusion chromatography separates by hydrodynamic size, large species first.
In experiment [2] the target is vinculin D1 first subdomain (residues 1-257) (human) (UniProt P18206). The experiment in a line: native gel or EMSA. (A gel shift assay detects complexes by their altered migration in electrophoresis.)
The target in experiment [3] is vinculin D1D2 (residues 1-484) (human) (UniProt P18206). Kind of experiment: native gel or EMSA.
The target of experiment [4] is full-length human vinculin (HV) (human) (UniProt P18206). The experiment in a line: solid-phase binding assay.
In experiment [5] the target is vinculin D1D2 (residues 1-484) (human) (UniProt P18206). Kind of experiment: SEC-MALS.
The target of experiment [6] is vinculin D1 first subdomain (residues 1-257) (human) (UniProt P18206). The experiment in a line: SEC-MALS.
Experiment [7] has as its target vinculin D1D2 (residues 1-484) (human) (UniProt P18206). The experiment in a line: SEC-MALS. This is another data set of the same source.

Take “vinculin D1D4 (residues 1-834) (from UniProt P18206 1-834) (domain or fragment)”: the stoichiometry N (usually the number of molecules, sites or subunits per partner or assembly) in experiment [1] was 2 and 3.
For the substance “IpaA derivative containing VBS1-2 (AVBS1-2) (from UniProt P18010 1-633) (domain or fragment)”, the stoichiometry N in experiment [2] was 1 D1:AVBS1-2; in experiment [3], 1 D1D2:AVBS1-2; in experiment [5], 1 D1D2:AVBS1-2. In addition, the EC50 (commonly the midpoint of the concentration-response curve) in experiment [4] came to 3.7 nM.
Take “IpaA derivative containing VBS1-3 (AVBS1-3) (from UniProt P18010 1-633) (domain or fragment)”: the stoichiometry N in experiment [2] was 1 D1:AVBS1-3; in experiment [3] it was 1 D1D2:AVBS1-3; in experiment [3] (scale: AVBS1-3 per D1D2), 2; in experiment [1] it was 1 D1D4:AVBS1-3. Besides, the stoichiometry N (D1D2:AVBS1-3 molar ratio) in experiment [3] is 3. The EC50 in experiment [4] stood at 6.1 nM. In addition, in experiment [6], the stoichiometry N (molar ratio, printed as AVBS1-3:D1) was 1 and 2 and 3.
For “vinculin D1D2 (residues 1-484) (from UniProt P18206 1-484) (domain or fragment)”, the stoichiometry N in experiment [5] was 2; in experiment [7], 2 and 3.
